The text below walks through data of patent publication US20170015742A1 (published 2017).

In test [1] the target is T1, recombinant human VEGF-R2-Fc (human, UniProt P35968 20-764).
T1 construct: also called hVEGFR2-Fc; KDR/Flk-1; not shown: Fc part of the bought fusion protein
Kind of test: competition ELISA: antibody added to coated hVEGF-R2-Fc, then biotin-hVEGF165. How it is done: To identify molecules which could block the binding of VEGF-R2 (KDR/Flk-1) to hVEGF₁₆₅, a competition ELISA was performed. […] Plates were then washed four times with wash buffer (TBS, 0.05% Tween-20) and blocked with Superblock blocking buffer (Thermo Scientific, cat#37535). […] The samples were added to wells and incubated for 30 minutes at 25° C. with shaking. […] Following incubation, plates were washed four times with wash buffer. Streptavidin-polyHRP-40 (Fitzgerald cat#65r-s104phrp) was diluted in assay diluent (10% Superblock containing 0.05% surfactamps) and added to plates (50 μL) for 45 minutes at 25° C. with shaking. Plates were washed four times with wash buffer and developed with the addition of Enhanced K-blue TMB substrate (Neogen cat#308177). The reaction was stopped with 2N sulfuric acid (VWR, cat# BDH3500-1) and the absorbance was read at 450 nm-570 nm. A decrease in observed optical density indicates the test molecule is blocking the human VEGF-R2-Fc binding to hVEGF₁₆₅. Data was analyzed using Softmax Pro 4.8 software and IC₅₀ values calculated using a sigmoidal dose response (variable slope) fit in GraphPad Prism 5.

In test [2] the target is T2, mouse VEGF (PR-1578904) (mouse, UniProt Q00731 205-392).
T2 construct: also called mVEGF164
T2 chain: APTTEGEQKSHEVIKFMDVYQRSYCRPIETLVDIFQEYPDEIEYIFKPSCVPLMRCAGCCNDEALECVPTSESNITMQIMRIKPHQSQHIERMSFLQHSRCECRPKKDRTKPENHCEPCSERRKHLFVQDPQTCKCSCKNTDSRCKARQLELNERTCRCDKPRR
Description: SPR (Biacore), mAb captured by anti-human Fc, antigen injected. How it is done:
Unreacted moieties on the biosensor surface were blocked with ethanolamine. For kinetic analysis, rate equations derived from the 1:1 Langmuir binding model were fitted simultaneously to multiple antigen injections (using global fit analysis) with the use of Scrubber 2 (BioLogic Software), Biacore Biaevaluation 4.0.1 software or Biacore T100 Evaluation software. Purified antibodies or DVD-Ig molecules were diluted in running buffer for capture across goat anti-human Fc reaction surfaces. Antibodies or DVD-Ig molecules to be captured as a ligand (1 μg/ml) were injected over reaction matrices at a flow rate of 10 μl/minute. During the assay, all measurements were referenced against the capture surface alone (i.e., with no captured antibody or DVD-Ig molecule). […] The equilibrium dissociation constant KD (M) of the reaction between antibodies and the target antigen was then calculated from the kinetic rate constants by the following formula: KD=Koff/Kₒₙ. Binding was recorded as a function of time and kinetic rate constants were calculated. In this assay, on-rates as fast as 10⁶M⁻¹s⁻¹ and off-rates as slow as 10⁻⁶ s⁻¹ could be measured.
On the technique in general: In SPR one partner is held on a chip, and binding of the other changes the refractive index at the surface.

T1 sequence (P35968 20-764 limits assumed): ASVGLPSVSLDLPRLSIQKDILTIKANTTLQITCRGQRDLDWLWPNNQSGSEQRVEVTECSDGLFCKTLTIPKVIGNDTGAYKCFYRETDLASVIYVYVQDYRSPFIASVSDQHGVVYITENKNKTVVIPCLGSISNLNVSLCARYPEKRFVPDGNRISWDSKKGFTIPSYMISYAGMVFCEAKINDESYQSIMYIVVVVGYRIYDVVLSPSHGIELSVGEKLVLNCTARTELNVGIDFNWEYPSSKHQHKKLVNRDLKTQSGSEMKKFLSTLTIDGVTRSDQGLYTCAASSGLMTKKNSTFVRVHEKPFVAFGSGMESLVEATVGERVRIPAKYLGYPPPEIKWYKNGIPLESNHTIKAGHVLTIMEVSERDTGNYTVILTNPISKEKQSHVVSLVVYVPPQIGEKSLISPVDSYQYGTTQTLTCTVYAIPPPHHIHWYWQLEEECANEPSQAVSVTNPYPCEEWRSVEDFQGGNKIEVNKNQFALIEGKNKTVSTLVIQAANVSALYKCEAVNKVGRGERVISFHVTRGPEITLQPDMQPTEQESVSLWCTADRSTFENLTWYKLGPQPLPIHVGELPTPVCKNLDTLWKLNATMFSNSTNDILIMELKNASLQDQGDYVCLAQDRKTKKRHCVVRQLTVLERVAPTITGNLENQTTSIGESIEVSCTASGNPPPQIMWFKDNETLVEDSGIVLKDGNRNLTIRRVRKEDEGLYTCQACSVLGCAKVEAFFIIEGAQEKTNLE

B1: chBCU-6B1-G6 (antibody, V domains shown)
VH: QIQLVQSGPELKKPGESVKISCKASGYTFTNYGMYWVKQAPGQALQFMGWINTETGQPTYADDFKGRFVFFLETSASTAYLQINNLKNEDMATYFCARLGNNYGIWFAYWGQGTLVTVSS
VL: DIQMTQSPASLSASLGETVTIECRASDDLYSTLAWYQQKPGDSPQLLIFDANRLAAGVPSRFSGSGSGTQYSLKINSLQSEDVASYFCQQYNKFPWTFGGGTKLELK
notes: also called chimeric BCU-6B1-G6
With B1, in test [1], the IC50 (as a rule, the midpoint of a concentration-inhibition curve) stood at 0.498 nM.

B2: AB014 (Avastin), PR-1545939 (antibody, V domains shown)
VH: EVQLVESGGGLVQPGGSLRLSCAASGYTFTNYGMNWVRQAPGKGLEWVGWINTYTGEPTYAADFKRRFTFSLDTSKSTAYLQMNSLRAEDTAVYYCAKYPHYYGSSHWYFDVWGQGTLVTVSS
VL: DIQMTQSPSSLSASVGDRVTITCSASQDISNYLNWYQQKPGKAPKVLIYFTSSLHSGVPSRFSGSGSGTDFTLTISSLQPEDFATYYCQQYSTVPWTFGQGTKVEIK
notes: Anti-VEGF-A mAb
As for B2, in test [2], the binding result is recorded as “no binding”.
